{
  "source": "paper PMC12412652",
  "about": "(Science Advances, 2025)",
  "binders": {"B1": {"name": "MBP-BAK 16-186, biotinylated (Avi tag, 6-histidine tag) (domain or fragment)", "chain": "EPALPSASEEQVAQDTEEVFRSYVFYRHQQEQEAEGVAAPADPEMVTLPLQPSSTMGQVGRQLAIIGDDINRRYDSEFQTMLQHLQPTAENAYEYFTKIATSLFESGINWGRVVALLGFGYRLALHVYQHGLTGFLGQVTRFVVDFMLHHCIARWIAQRGGWVAALNLGNGLEGLNDIFEAQKIEWHEGSHHHHHH", "modifications": "biotin on the Avi tag (enzymatic, BirA)"}, "B2": {"name": "MBP-BidBH3 (domain or fragment, UniProt P55957 1-195, looked up)", "chain": "MDCEVNNGSSLRDECITNLLVFGFLQSCSDNSFRRELDALGHELPVLAPQWEGYDELQTDGNRSSHSRLGRIEADSESQEDIIRNIARHLAQVGDSMDRSIPPGLVNGLALQLRNTSRSEEDRNRDLATALEQLLQAYPRDMEKEKTMLVLALLLAKKVASHTPSLLRDVFHTTVNFINQNLRTYVRSLARNGMD", "notes": "BH3 peptide of the BH3-only protein BID, fused to MBP"}, "B3": {"name": "BFL-1 (natural protein)", "chain": "MTDCEFGYIYRLAQDYLQCVLQIPQPGSGPSKTSRVLQNVAFSVQKEVEKNLKSCLDNVNVVSVDTARTLFNQVMEKEFEDGIINWGRIVTIFAFEGILIKKLLRQQIAPDVDTYKEISYFVAEFIMNNTGEWIRQNGGWENGFVKKFEPKSG", "modifications": "biotin"}},
  "details_in_all_cases": "both partners purified",
  "key": {"[1]": {"biological_target": "T1, αBAK2", "T1 construct": "Form used for BLI and, as far as told, for the liposome and cytochrome c assays; source: E. coli, purified", "test": "BLI; Octet RED96; biotinylated BCL-2 family proteins (25 nM) immobilised on streptavidin biosensors, designed protein in solution; 10 mM Hepes pH 7.4, 150 mM NaCl, 3 mM EDTA, 0.05% surfactant P20, 0.5% nonfat dry milk; titrations in triplicate, 1:1 binding model"}, "[2]": {"biological_target": "T2, αBAK1", "T2 construct": "source: E. coli, purified", "test": "BLI; Octet RED96; biotinylated BCL-2 family proteins (25 nM) immobilised on streptavidin biosensors, designed protein in solution; 10 mM Hepes pH 7.4, 150 mM NaCl, 3 mM EDTA, 0.05% surfactant P20, 0.5% nonfat dry milk; titrations in triplicate, 1:1 binding model"}, "[3]": {"biological_target": "MBP-BIM-BH3", "test": "BLI; Octet RED96; biotinylated BCL-2 family proteins (25 nM) immobilised on streptavidin biosensors, designed protein in solution; 10 mM Hepes pH 7.4, 150 mM NaCl, 3 mM EDTA, 0.05% surfactant P20, 0.5% nonfat dry milk; titrations in triplicate, 1:1 binding model"}, "[4]": {"biological_target": "T3, BAK-CDP02 (BAK-targeting computationally designed protein 02 of 11)", "T3 construct": "Cloned into pET29b; source: E. coli, purified (Ni-NTA, SEC)", "test": "BLI; Octet RED96; biotinylated BCL-2 family proteins (25 nM) immobilised on streptavidin biosensors, designed protein in solution; 10 mM Hepes pH 7.4, 150 mM NaCl, 3 mM EDTA, 0.05% surfactant P20, 0.5% nonfat dry milk; titrations in triplicate, 1:1 binding model"}, "[5]": {"biological_target": "BCL-XL, biotinylated (UniProt Q07817-1 1-233, biotin)", "sequence (Q07817 whole entry)": "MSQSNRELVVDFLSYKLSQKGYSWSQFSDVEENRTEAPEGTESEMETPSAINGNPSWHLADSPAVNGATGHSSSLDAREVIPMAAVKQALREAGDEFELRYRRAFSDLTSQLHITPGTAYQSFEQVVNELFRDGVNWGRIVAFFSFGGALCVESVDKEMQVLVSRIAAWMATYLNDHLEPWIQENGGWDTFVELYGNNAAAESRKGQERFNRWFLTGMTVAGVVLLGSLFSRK", "test": "BLI; Octet RED96; biotinylated BCL-2 proteins (25 nM) immobilised on streptavidin biosensors; 10 mM Hepes pH 7.4, 150 mM NaCl, 3 mM EDTA, 0.05% surfactant P20, 0.5% nonfat dry milk; multiple-concentration titrations, 1:1 binding model"}, "[6]": {"biological_target": "BCL-2, biotinylated (UniProt P10415 1-239, biotin)", "sequence (P10415 whole entry)": "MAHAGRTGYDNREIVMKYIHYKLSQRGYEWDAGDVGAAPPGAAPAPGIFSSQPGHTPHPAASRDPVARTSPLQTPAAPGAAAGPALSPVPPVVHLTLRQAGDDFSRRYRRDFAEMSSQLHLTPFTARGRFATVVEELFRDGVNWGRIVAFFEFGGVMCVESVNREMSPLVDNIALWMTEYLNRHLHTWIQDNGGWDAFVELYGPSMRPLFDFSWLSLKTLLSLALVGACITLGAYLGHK", "test": "BLI; Octet RED96; biotinylated BCL-2 proteins (25 nM) immobilised on streptavidin biosensors; 10 mM Hepes pH 7.4, 150 mM NaCl, 3 mM EDTA, 0.05% surfactant P20, 0.5% nonfat dry milk; multiple-concentration titrations, 1:1 binding model"}, "[7]": {"biological_target": "αBAX1", "test": "BLI; Octet RED96; biotinylated BCL-2 family proteins (25 nM) immobilised on streptavidin biosensors, designed protein in solution; 10 mM Hepes pH 7.4, 150 mM NaCl, 3 mM EDTA, 0.05% surfactant P20, 0.5% nonfat dry milk; titrations in triplicate, 1:1 binding model"}},
  "data": [
    {"binder": "B1", "values": [
      {"measurement": "Kd", "setting": "[1]", "result": 0.4, "unit": "nM"},
      {"measurement": "Kd", "setting": "[2]", "result": 7, "unit": "nM"},
      {"measurement": "Kd", "setting": "[3]", "result": "4 ± 2", "unit": "µM"},
      {"measurement": "Kd", "setting": "[4]", "result": 60, "unit": "nM"}
    ]},
    {"binder": "B2", "values": [
      {"measurement": "Kd", "setting": "[5]", "result": "2.3 ± 0.4", "unit": "nM"},
      {"measurement": "Kd", "setting": "[6]", "result": "47 ± 5", "unit": "nM"}
    ]},
    {"binder": "B3", "values": [
      {"measurement": "Kd", "setting": "[7]", "result": 5, "unit": "nM"}
    ]}
  ]
}
